Laboratory results: patent US20230040568A1

Target: KIR3DL3 protein (antigen of the affinity determination of Table 3) (human) (UniProt Q8N743)
Assay: method and antigen format not stated

Chain of KIR3DL3 protein (antigen of the affinity determination of Table 3) (human) (Q8N743 other isoform, or with tags, fused parts or gaps limits assumed): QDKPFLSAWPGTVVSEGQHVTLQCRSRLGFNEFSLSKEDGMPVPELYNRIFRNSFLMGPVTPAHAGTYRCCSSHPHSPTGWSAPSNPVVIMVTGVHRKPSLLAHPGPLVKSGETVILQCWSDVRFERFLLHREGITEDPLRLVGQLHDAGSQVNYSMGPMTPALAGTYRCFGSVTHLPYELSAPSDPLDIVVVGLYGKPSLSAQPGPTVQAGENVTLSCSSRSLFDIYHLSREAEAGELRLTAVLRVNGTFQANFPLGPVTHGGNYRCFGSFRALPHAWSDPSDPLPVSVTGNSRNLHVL

B1: monoclonal 26E2 (antibody, part only; not given: VH framework 1 and CDR1, V domains shown, part only)
VH, part: RWVKQTPGQGLEWIGYIYPGDGGTNCNQKFQGKATLTADTSSSTAYMQISSLTSEDSAVYFCARSGNYGNYEGFAFWGQGTLVTVSA
VL: DIKMTQSPSSMYASLGERVTITCKASQDTNSYLSWFQQKPGKSPKTLIYRANRLVDGVPSRFSGSGSGQDYSLTISRLEYEDMGIYYCLQYNEFPYTFGGGTKLEIKRADA
- Kd: 0.26 nM
